Experimental data published in CN110760483A (UNIV YANGZHOU, dated 2020).

Assays:
[1] = target: T1, 天然牛TNF-α (牛外周血单核细胞) (牛 (bovine)) (UniProt Q06599); assay: intracellular flow cytometry, unstimulated bovine PBMC (control well), FITC-3C1 0.5μg/mL
T1 sequence (looked up): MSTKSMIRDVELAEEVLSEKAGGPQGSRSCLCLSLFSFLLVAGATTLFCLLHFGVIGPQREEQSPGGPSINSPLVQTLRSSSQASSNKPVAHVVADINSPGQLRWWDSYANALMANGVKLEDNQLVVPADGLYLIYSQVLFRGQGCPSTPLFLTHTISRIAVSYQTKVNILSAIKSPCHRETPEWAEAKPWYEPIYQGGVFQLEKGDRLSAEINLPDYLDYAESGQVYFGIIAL

[2] = target: T2, rBoIFN-γ (美国R&D公司, 2300-BG-02) (UniProt P07353 24-166); assay: indirect ELISA, coated protein, 3C1 hybridoma supernatant
T2 construct: Commercial protein; species read from the label Bo
T2 sequence (looked up): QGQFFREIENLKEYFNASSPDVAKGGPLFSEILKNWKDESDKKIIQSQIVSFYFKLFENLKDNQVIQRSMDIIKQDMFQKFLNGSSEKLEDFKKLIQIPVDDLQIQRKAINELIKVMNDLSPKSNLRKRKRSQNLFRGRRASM

[3] = target: T3, rhuTNF-α (PeproTech, 300-01A-50) (UniProt P01375 77-233); assay: as above
T3 construct: Commercial protein
T3 sequence (P01375 77-233 limits assumed): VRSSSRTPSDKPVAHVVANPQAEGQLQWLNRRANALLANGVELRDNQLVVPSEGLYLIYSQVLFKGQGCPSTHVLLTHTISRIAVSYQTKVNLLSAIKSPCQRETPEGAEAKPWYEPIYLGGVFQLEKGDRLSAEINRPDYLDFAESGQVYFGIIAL

[4] = target: T4, rBoIL-2 (Kingfisher-Biotech公司, rp0026B-005) (UniProt P05016 21-155); assay: as above
T4 construct: Commercial protein
T4 sequence (looked up): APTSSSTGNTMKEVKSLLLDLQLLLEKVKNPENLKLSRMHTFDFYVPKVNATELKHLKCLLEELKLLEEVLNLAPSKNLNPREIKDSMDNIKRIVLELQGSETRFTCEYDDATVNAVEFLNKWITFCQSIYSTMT

[5] = target: T5, rPoTNF-α (美国R&D公司, 690-PT-025) (UniProt P23563 77-232); assay: as above
T5 construct: Commercial protein
T5 sequence (P23563 77-232 limits assumed): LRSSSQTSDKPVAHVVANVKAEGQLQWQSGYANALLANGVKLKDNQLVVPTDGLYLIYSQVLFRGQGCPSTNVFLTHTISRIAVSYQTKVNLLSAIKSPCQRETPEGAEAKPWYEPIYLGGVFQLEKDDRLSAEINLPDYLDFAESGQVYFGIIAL

[6] = target: T6, 天然羊TNF-α (羊外周血单核细胞) (羊 (sheep)) (UniProt P23383); assay: intracellular flow cytometry, unstimulated sheep PBMC (control well), FITC-3C1 0.5μg/mL
T6 sequence (looked up): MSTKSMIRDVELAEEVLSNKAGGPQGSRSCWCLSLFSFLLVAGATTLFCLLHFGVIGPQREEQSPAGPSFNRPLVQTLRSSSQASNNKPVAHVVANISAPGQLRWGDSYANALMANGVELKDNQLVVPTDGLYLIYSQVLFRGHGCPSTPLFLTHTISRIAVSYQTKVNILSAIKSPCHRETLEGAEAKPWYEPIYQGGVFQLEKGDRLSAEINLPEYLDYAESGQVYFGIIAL

[7] = target: T6, 天然羊TNF-α (羊外周血单核细胞) (羊 (sheep)); assay: intracellular flow cytometry, PMA/ionomycin-stimulated sheep PBMC, FITC-3C1 0.5μg/mL
[8] = target: T7, rGST-BoTNF-α (pGEX-6p-1-BoTNF-α, E. coli BL21) (牛 (bovine)) (UniProt Q06599); assay: indirect ELISA, rGST-BoTNF-α coated at 0.5μg/mL, serially diluted 3C1 ascites, cut-off P/N≥2.1
T7 sequence (looked up): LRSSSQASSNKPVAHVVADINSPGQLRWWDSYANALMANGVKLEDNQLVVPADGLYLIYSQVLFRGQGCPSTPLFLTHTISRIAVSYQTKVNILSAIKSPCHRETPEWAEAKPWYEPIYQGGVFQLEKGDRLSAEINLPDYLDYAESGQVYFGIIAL

[9] = target: T8, 商品化rBoTNF-α (美国R&D公司, 2279-BT-025) (牛 (bovine), UniProt Q06599 78-234); assay: indirect ELISA, protein coated at 0.5μg/mL, 3C1 hybridoma supernatant
T8 construct: Commercial protein
T8 sequence (looked up): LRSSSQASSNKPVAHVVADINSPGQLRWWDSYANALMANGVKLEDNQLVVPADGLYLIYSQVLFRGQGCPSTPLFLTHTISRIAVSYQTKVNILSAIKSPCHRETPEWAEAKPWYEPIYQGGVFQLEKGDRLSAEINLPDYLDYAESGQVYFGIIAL

[10] = target: T9, rHis-BoTNF-α (pET-30a(+)-BoTNF-α, E. coli BL21(DE3)) (牛 (bovine), UniProt Q06599 78-234); assay: Western blot with HRP-3C1 1:1000
T9 construct: Own construct; also called rHis-BoTNF-α纯化蛋白; not shown: N-terminal His tag and vector residues of pET-30a(+) up to the BamHI site
T9 sequence (looked up): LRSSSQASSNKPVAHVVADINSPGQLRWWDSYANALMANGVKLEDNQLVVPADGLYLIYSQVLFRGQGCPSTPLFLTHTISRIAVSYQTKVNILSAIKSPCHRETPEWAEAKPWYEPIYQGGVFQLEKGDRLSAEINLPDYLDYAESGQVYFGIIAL

[11] = target: T1, 天然牛TNF-α (牛外周血单核细胞) (牛 (bovine)); assay: intracellular flow cytometry, PMA/ionomycin-stimulated bovine PBMC, FITC-3C1 0.5μg/mL

B1: 单克隆抗体3C1 (具牛、羊交叉反应的抗TNF-α单克隆抗体, 杂交瘤 CCTCC NO:C2019129) (antibody, V domains shown)
VH: QVQLKQSGPGLVQPSQSLSITCTVSGFSLTNFSVHWVRQPPGKGLEWLGVMWSGGSTDYNAAFISRLSIIKDNSKSQVFFKMNGLQADDTAIYYCARSGPYYYSLDYWGQGTSVTVSS
VL: DIQMTQSPASLSASVGETVTITCRASENIYIYLAWYQQKQGKSPQLLVYNAKTLAEGVPSRFSGSGSGTQFSLNINSLQPEDFGSYYCQHHYGTPWTFGGGTKLEIK
notes: Used as ascites, hybridoma supernatant, HRP-labelled (HRP-3C1) or FITC-labelled (FITC-3C1) antibody, depending on the assay; also called mAb 3C1; MAb 3C1
分泌牛TNF-α细胞比例 (percent stained cells) [1]: 0.051%
binding result [2]: no binding (tested: 0.5μg/mL (coating))
binding result [3]: no binding (tested: 0.5μg/mL (coating))
binding result [4]: no binding (tested: 0.5μg/mL (coating))
binding result [5]: no binding (tested: 0.5μg/mL (coating))
分泌羊TNF-α细胞比例 (percent stained cells) [6]: 0.027%
分泌羊TNF-α细胞比例 (percent stained cells) [7]: 13.4%
效价 (ascites titre) (dilution (1:x)) [8]: 1.31e+07
binding result [9]: binds
binding result [10]: binds
分泌牛TNF-α细胞比例 (percent stained cells) [11]: 18.4%
